{
  "source": "patent US20160264649A1",
  "assay_in_all_cases": "cell-based or functional assay",
  "key": {"[1]": {"molecular_target": "HIV-1 MGRM-G-025 Env (HIV-1)"}, "[2]": {"molecular_target": "HIV-1 MGRM-D-028 Env (HIV-1)"}, "[3]": {"molecular_target": "HIV-1 MGRM-D-011 Env (HIV-1)"}, "[4]": {"molecular_target": "HIV-1 MGRM-D-019 Env (HIV-1)"}, "[5]": {"molecular_target": "HIV-1 MGRM-G-006 Env (HIV-1)"}, "[6]": {"molecular_target": "HIV-1 JRFL Env on pseudovirus (HIV-1)"}, "[7]": {"molecular_target": "HIV-1 MGRM-AE-006 Env (HIV-1)"}, "[8]": {"molecular_target": "HIV-1 92BR020 Env on pseudovirus (HIV-1)"}, "[9]": {"molecular_target": "HIV-1 MGRM-AG-001 Env (HIV-1)"}, "[10]": {"molecular_target": "HIV-1 93TH305 Env on pseudovirus (HIV-1)"}, "[11]": {"molecular_target": "HIV-1 MGRM-D-022 Env (HIV-1)"}, "[12]": {"molecular_target": "HIV-1 MGRM-F1-004 Env (HIV-1)"}, "[13]": {"molecular_target": "HIV-1 MGRM-C-023 Env on pseudovirus (HIV-1)"}, "[14]": {"molecular_target": "HIV-1 92UG001 Env (HIV-1)"}, "[15]": {"molecular_target": "HIV-1 MGRM-C-019 Env on pseudovirus (HIV-1)"}, "[16]": {"molecular_target": "HIV-1 6535.3 (Acute) Env on pseudovirus (HIV-1)"}, "[17]": {"molecular_target": "HIV-1 MGRM-G-028 Env (HIV-1)"}, "[18]": {"molecular_target": "HIV-1 MGRM-D-008 Env (HIV-1)"}, "[19]": {"molecular_target": "HIV-1 THR0.18 (Acute) Env on pseudovirus (HIV-1)"}, "[20]": {"molecular_target": "HIV-1 MGRM-G-014 Env (HIV-1)"}, "[21]": {"molecular_target": "HIV-1 92RW020 Env (HIV-1)"}, "[22]": {"molecular_target": "HIV-1 MGRM-G-011 Env (HIV-1)"}, "[23]": {"molecular_target": "HIV-1 MGRM-D-021 Env (HIV-1)"}, "[24]": {"molecular_target": "HIV-1 MGRM-C-005 Env on pseudovirus (HIV-1)"}, "[25]": {"molecular_target": "HIV-1 MGRM-F1-015 Env (HIV-1)"}, "[26]": {"molecular_target": "aMLV envelope (negative control pseudovirus)"}, "[27]": {"molecular_target": "HIV-1 MGRM-C-006 Env on pseudovirus (HIV-1)"}, "HIV-1 APV-13 Env (HIV-1)": {"molecular_target": "HIV-1 APV-13 Env (HIV-1)"}, "[28]": {"molecular_target": "HIV-1 MGRM-AG-009 Env (HIV-1)"}, "[29]": {"molecular_target": "HIV-1 MGRM-F1-006 Env (HIV-1)"}, "[30]": {"molecular_target": "HIV-1 MGRM-C-012 Env on pseudovirus (HIV-1)"}, "[31]": {"molecular_target": "HIV-1 TRJ0.58 (Acute) Env on pseudovirus (HIV-1)"}, "[32]": {"molecular_target": "HIV-1 92UG046 Env (HIV-1)"}, "[33]": {"molecular_target": "HIV-1 MGRM-D-002 Env (HIV-1)"}, "[34]": {"molecular_target": "HIV-1 MGRM-C-015 Env on pseudovirus (HIV-1)"}, "[35]": {"molecular_target": "HIV-1 NL43 Env on pseudovirus (HIV-1)"}, "[36]": {"molecular_target": "HIV-1 MGRM-AE-002 Env (HIV-1)"}, "[37]": {"molecular_target": "HIV-1 MGRM-C-017 Env on pseudovirus (HIV-1)"}, "HIV-1 APV-6 Env (HIV-1)": {"molecular_target": "HIV-1 APV-6 Env (HIV-1)"}, "[38]": {"molecular_target": "HIV-1 MGRM-C-008 Env on pseudovirus (HIV-1)"}, "[39]": {"molecular_target": "HIV-1 MGRM-G-004 Env (HIV-1)"}, "HIV-1 NL43 Env (HIV-1)": {"molecular_target": "HIV-1 NL43 Env (HIV-1)"}, "[40]": {"molecular_target": "HIV-1 MGRM-C-020 Env on pseudovirus (HIV-1)"}, "[41]": {"molecular_target": "HIV-1 IAVI-C3 Env (HIV-1)"}, "[42]": {"molecular_target": "HIV-1 MGRM-AG-013 Env (HIV-1)"}, "[43]": {"molecular_target": "HIV-1 MGRM-D-004 Env (HIV-1)"}, "[44]": {"molecular_target": "HIV-1 MGRM-F1-010 Env (HIV-1)"}, "[45]": {"molecular_target": "HIV-1 MGRM-AG-005 Env (HIV-1)"}, "[46]": {"molecular_target": "HIV-1 92UG005 Env (HIV-1)"}, "[47]": {"molecular_target": "HIV-1 MGRM-C-001 Env on pseudovirus (HIV-1)"}, "[48]": {"molecular_target": "HIV-1 MGRM-D-020 Env (HIV-1)"}, "[49]": {"molecular_target": "HIV-1 MGRM-C-014 Env on pseudovirus (HIV-1)"}},
  "data": [
    {"substance": "4E10 (antibody)", "values": [
      {"measurement": "IC50 (µg/ml), pseudovirus neutralization", "setting": "[1]", "value": 1.7, "unit": "µg/mL"},
      {"measurement": "IC50 (µg/ml), pseudovirus neutralization", "setting": "[2]", "value": 1.28, "unit": "µg/mL"},
      {"measurement": "IC50 (µg/ml), pseudovirus neutralization", "setting": "[3]", "value": 0.91, "unit": "µg/mL"},
      {"measurement": "IC50 (µg/ml), pseudovirus neutralization", "setting": "[4]", "value": 0.04, "unit": "µg/mL"},
      {"measurement": "IC50 (µg/ml), pseudovirus neutralization", "setting": "[5]", "value": 1.23, "unit": "µg/mL"},
      {"measurement": "IC50", "setting": "[6]", "value": 18.9, "unit": "µg/mL"},
      {"measurement": "IC50 (µg/ml), pseudovirus neutralization", "setting": "[7]", "value": 0.23, "unit": "µg/mL"},
      {"measurement": "IC50", "setting": "[8]", "value": "> 50", "unit": "µg/mL"},
      {"measurement": "IC50 (µg/ml), pseudovirus neutralization", "setting": "[9]", "value": 1.12, "unit": "µg/mL"},
      {"measurement": "IC50", "setting": "[10]", "value": 12.3, "unit": "µg/mL"},
      {"measurement": "IC50 (µg/ml), pseudovirus neutralization", "setting": "[11]", "value": 16.9, "unit": "µg/mL"},
      {"measurement": "IC50 (pseudovirus neutralization)", "setting": "[12]", "value": 2.74, "unit": "µg/mL"},
      {"measurement": "IC50", "setting": "[13]", "value": 1.95, "unit": "µg/mL"},
      {"measurement": "IC50 (µg/ml), pseudovirus neutralization", "setting": "[14]", "value": 13.6, "unit": "µg/mL"},
      {"measurement": "IC50", "setting": "[15]", "value": 3.49, "unit": "µg/mL"},
      {"measurement": "IC50", "setting": "[16]", "value": 1.23, "unit": "µg/mL"},
      {"measurement": "IC50 (µg/ml), pseudovirus neutralization", "setting": "[17]", "value": 6.32, "unit": "µg/mL"},
      {"measurement": "IC50 (µg/ml), pseudovirus neutralization", "setting": "[18]", "value": 42.9, "unit": "µg/mL"},
      {"measurement": "IC50", "setting": "[19]", "value": 4.68, "unit": "µg/mL"},
      {"measurement": "IC50 (µg/ml), pseudovirus neutralization", "setting": "[20]", "value": 13.7, "unit": "µg/mL"},
      {"measurement": "neutralization IC50", "setting": "[21]", "value": 3.38, "unit": "µg/mL"},
      {"measurement": "neutralization IC90", "setting": "[21]", "value": 36.1, "unit": "µg/mL"},
      {"measurement": "IC50 (µg/ml), pseudovirus neutralization", "setting": "[22]", "value": 1.44, "unit": "µg/mL"},
      {"measurement": "IC50 (µg/ml), pseudovirus neutralization", "setting": "[23]", "value": 13.3, "unit": "µg/mL"},
      {"measurement": "IC50", "setting": "[24]", "value": 16.4, "unit": "µg/mL"},
      {"measurement": "IC50 (pseudovirus neutralization)", "setting": "[25]", "value": 0.53, "unit": "µg/mL"},
      {"measurement": "IC50 (pseudovirus neutralization)", "setting": "[26]", "value": "> 50", "unit": "µg/mL"},
      {"measurement": "IC50", "setting": "[27]", "value": 4.94, "unit": "µg/mL"},
      {"measurement": "neutralization IC50", "setting": "HIV-1 APV-13 Env (HIV-1)", "value": 3.8, "unit": "µg/mL"},
      {"measurement": "IC50 (µg/ml), pseudovirus neutralization", "setting": "[28]", "value": 31.4, "unit": "µg/mL"},
      {"measurement": "IC50 (pseudovirus neutralization)", "setting": "[29]", "value": 1.01, "unit": "µg/mL"},
      {"measurement": "IC50", "setting": "[30]", "value": 0.44, "unit": "µg/mL"},
      {"measurement": "IC50", "setting": "[31]", "value": 11.9, "unit": "µg/mL"},
      {"measurement": "IC50 (µg/ml), pseudovirus neutralization", "setting": "[32]", "value": 12.2, "unit": "µg/mL"},
      {"measurement": "IC50 (µg/ml), pseudovirus neutralization", "setting": "[33]", "value": 9.44, "unit": "µg/mL"},
      {"measurement": "IC50", "setting": "[34]", "value": 2.52, "unit": "µg/mL"},
      {"measurement": "IC50", "setting": "[35]", "value": 4.67, "unit": "µg/mL"},
      {"measurement": "IC50 (µg/ml), pseudovirus neutralization", "setting": "[36]", "value": 0.55, "unit": "µg/mL"},
      {"measurement": "IC50", "setting": "[37]", "value": 1.47, "unit": "µg/mL"},
      {"measurement": "neutralization IC50", "setting": "HIV-1 APV-6 Env (HIV-1)", "value": 0.4, "unit": "µg/mL"},
      {"measurement": "IC50", "setting": "[38]", "value": 2.97, "unit": "µg/mL"},
      {"measurement": "IC50 (µg/ml), pseudovirus neutralization", "setting": "[39]", "value": 1.47, "unit": "µg/mL"},
      {"measurement": "neutralization IC50", "setting": "HIV-1 NL43 Env (HIV-1)", "value": 4.95, "unit": "µg/mL"},
      {"measurement": "neutralization IC90", "setting": "HIV-1 NL43 Env (HIV-1)", "value": 29.6, "unit": "µg/mL"},
      {"measurement": "IC50", "setting": "[40]", "value": 2.8, "unit": "µg/mL"},
      {"measurement": "neutralization IC50", "setting": "[41]", "value": 5, "unit": "µg/mL"},
      {"measurement": "IC50 (µg/ml), pseudovirus neutralization", "setting": "[42]", "value": 2.61, "unit": "µg/mL"},
      {"measurement": "IC50 (µg/ml), pseudovirus neutralization", "setting": "[43]", "value": 1.58, "unit": "µg/mL"},
      {"measurement": "IC50 (pseudovirus neutralization)", "setting": "[44]", "value": 3.69, "unit": "µg/mL"},
      {"measurement": "IC50 (µg/ml), pseudovirus neutralization", "setting": "[45]", "value": 2.13, "unit": "µg/mL"},
      {"measurement": "IC50 (µg/ml), pseudovirus neutralization", "setting": "[46]", "value": 7.46, "unit": "µg/mL"},
      {"measurement": "neutralization IC50", "setting": "[46]", "value": 8.86, "unit": "µg/mL"},
      {"measurement": "neutralization IC90", "setting": "[46]", "value": "> 50", "unit": "µg/mL"},
      {"measurement": "IC50", "setting": "[47]", "value": 5.66, "unit": "µg/mL"},
      {"measurement": "IC50 (µg/ml), pseudovirus neutralization", "setting": "[48]", "value": "> 50", "unit": "µg/mL"},
      {"measurement": "IC50", "setting": "[49]", "value": 2.48, "unit": "µg/mL"}
    ]}
  ]
}
